Measured values published in US20140357845A1.

Columns and labels:
Experiment in all cases: FACS
[1] = biological target: miniHA (A/Brisbane/59/2007) (influenza A virus H1N1) (UniProt A8C8J4)
[2] = biological target: miniHA cluster1 (A/Brisbane/59/2007) (influenza A virus H1N1) (UniProt A8C8J4)
[3] = biological target: HK68 H3m2-cl9 + 10 + 12 (influenza A virus H3N2) (UniProt Q91MA7)
[4] = biological target: HK68 H3m2-cl9 + 10 + 11 + 12 (influenza A virus H3N2) (UniProt Q91MA7)
[5] = biological target: HK68 H3m2-cl9 + 10 + 11 + 12-GCN4 (influenza A virus H3N2) (UniProt Q91MA7)
[6] = biological target: HK68 H3m2-cl9 + 10 + 11 + 12-tri (influenza A virus H3N2) (UniProt Q91MA7)
[7] = biological target: mini2 cluster11 + 5 (A/Brisbane/59/2007) (influenza A virus H1N1) (UniProt A8C8J4)
[8] = biological target: H3-mini2-cl9 + 10 + 11 + 12-GCN4 (influenza A virus H3N2) (UniProt O11283)

Substance | % positive cells [1] | % positive cells [2] | % positive cells [3] | % positive cells [4] | % positive cells [5] | % positive cells [6] | MFI relative to full-length HA [7] | MFI relative to full-length HA [2] | % positive cells [8]
CR6328 (antibody) | 1 to 3% | 60% | – | – | – | – | – | – | –
CR8043 (antibody) | – | – | > 15% | > 15% | > 15% | > 15% | – | – | –
CR6254 (antibody) | 1 to 3% | 60% | – | – | – | – | 50% | 10% | –
CR8020 (antibody) | – | – | > 15% | > 15% | > 15% | > 15% | – | – | 60%
